According to US7067277 (H LUNDBECK A S, dated 2006):

Columns and labels:
Assay in all cases: cell-based or functional assay
[1] = biological target: human dopamine D5 receptor (human, UniProt P21918 1-477)
[2] = biological target: human GLP-1 receptor (human, UniProt P43220 24-463)
[3] = biological target: human 5HT6 receptor (human, UniProt P50406 1-440)
[4] = biological target: T1, human dopamine D1 receptor (human, UniProt P21728 1-446)
[5] = biological target: human β2 adrenergic receptor (human, UniProt P07550 1-413)
[6] = biological target: human 5HT7 receptor (human, UniProt P34969 1-479)
[7] = biological target: human 5HT4 receptor (human, UniProt Q13639 1-388)
[8] = biological target: T1, human dopamine D1 receptor; remark: listed apart in the source
[9] = biological target: T1, human dopamine D1 receptor; remark: listed apart in the source

human 5HT6 receptor, sequence (P50406 whole entry): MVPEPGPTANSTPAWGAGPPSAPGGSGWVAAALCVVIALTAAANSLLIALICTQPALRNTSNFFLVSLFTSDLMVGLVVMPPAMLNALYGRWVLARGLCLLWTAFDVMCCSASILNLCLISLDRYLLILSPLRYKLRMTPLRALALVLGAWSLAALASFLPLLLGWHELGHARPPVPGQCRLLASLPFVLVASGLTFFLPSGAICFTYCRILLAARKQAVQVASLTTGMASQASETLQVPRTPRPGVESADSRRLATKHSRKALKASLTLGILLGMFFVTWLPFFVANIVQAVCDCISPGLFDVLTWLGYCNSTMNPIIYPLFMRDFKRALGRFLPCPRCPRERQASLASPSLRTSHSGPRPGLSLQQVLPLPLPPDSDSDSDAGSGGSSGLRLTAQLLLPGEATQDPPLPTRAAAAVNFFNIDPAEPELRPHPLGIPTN
human 5HT4 receptor, sequence (Q13639 whole entry): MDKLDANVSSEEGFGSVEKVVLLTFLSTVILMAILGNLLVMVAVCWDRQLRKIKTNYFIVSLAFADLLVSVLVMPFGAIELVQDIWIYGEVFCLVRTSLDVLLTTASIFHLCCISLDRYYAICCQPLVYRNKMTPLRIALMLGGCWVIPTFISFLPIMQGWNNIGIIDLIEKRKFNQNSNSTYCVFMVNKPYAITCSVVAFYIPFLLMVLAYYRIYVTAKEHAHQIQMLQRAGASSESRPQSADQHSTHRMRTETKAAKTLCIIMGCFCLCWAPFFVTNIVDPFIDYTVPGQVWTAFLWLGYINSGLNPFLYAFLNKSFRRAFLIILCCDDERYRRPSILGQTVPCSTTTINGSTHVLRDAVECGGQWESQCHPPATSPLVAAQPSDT
T1 sequence (P21728 whole entry): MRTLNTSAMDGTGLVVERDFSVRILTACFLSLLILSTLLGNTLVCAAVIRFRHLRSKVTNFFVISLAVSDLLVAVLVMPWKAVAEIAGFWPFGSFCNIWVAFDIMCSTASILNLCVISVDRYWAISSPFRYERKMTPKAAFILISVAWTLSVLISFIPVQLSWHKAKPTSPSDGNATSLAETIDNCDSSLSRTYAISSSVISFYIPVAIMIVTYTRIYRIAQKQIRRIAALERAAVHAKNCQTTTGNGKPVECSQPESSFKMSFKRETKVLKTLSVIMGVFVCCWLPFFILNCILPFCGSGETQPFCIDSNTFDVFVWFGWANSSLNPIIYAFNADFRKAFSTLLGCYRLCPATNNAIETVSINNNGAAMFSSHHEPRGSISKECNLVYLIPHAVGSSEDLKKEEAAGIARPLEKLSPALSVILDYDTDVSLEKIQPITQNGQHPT
human dopamine D5 receptor, sequence (P21918 whole entry): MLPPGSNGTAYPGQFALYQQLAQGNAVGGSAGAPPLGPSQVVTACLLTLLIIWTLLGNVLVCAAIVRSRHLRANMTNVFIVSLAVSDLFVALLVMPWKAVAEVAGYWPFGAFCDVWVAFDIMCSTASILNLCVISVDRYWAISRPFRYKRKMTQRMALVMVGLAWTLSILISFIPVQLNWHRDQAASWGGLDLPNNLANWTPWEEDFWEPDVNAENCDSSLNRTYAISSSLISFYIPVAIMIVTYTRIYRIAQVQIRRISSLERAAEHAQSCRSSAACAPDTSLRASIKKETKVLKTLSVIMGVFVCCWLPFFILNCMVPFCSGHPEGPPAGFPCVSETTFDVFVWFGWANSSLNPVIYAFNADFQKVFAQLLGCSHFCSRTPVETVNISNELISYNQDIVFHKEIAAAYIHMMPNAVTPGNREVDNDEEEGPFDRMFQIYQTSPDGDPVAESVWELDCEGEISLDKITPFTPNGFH
human 5HT7 receptor, sequence (P34969 whole entry): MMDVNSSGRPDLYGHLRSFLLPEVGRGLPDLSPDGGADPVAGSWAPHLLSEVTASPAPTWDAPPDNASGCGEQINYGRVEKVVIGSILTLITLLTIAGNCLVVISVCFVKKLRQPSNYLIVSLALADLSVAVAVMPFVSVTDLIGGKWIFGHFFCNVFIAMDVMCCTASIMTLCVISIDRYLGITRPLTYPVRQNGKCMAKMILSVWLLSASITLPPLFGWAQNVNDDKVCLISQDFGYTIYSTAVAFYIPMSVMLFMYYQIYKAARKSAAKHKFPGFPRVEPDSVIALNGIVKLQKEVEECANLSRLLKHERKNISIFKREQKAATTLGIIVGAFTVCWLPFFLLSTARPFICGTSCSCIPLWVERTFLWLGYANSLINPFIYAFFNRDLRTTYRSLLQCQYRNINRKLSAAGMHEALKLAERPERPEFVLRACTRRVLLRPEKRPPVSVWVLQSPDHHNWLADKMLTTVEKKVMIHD

Binder	max Ca2+ signal, COS-7, FLIPR; agonist DA [1]	max Ca2+ signal, COS-7, FLIPR; agonist GLP-1 [2]	max Ca2+ signal, COS-7, FLIPR; agonist 5HT [3]	max Ca2+ signal, COS-7, FLIPR; agonist DA [4]	max Ca2+ signal, COS-7, FLIPR; agonist NE [5]	max Ca2+ signal, COS-7, FLIPR; agonist 5HT [6]	max Ca2+ signal, COS-7, FLIPR; agonist 5HT [7]	max Ca2+ signal, COS-7, FLIPR; agonist dopamine; fold over hGαq/s9 [8]	max Ca2+ signal, COS-7, FLIPR; 100 µM dopamine [9]
C. elegans Gαq/s9 (other) MACCLSEEAREQKRINQEIEKQLQRDKRNARRELKLLLLGTGESGKSTFIKQMRIIHGQGYSEEDKRAHIRLVYQNVFMAIQSMIRAMDTLDIKFGNESEELQEKAAVVREVDFESVTSFEEPYVSYIKELWEDSGIQECYDRRREYQLTDSAKYYLSDLRRLAVPDYLPTEQDILRVRVPTTGIIEYPFDLEQIIFRMVDVGGQRSERRKWIHCFENVTSIMFLVALSEYDQVLVECDNENRMEESKALFRTIITYPWFTNSSVILFLNKKDLLEEKILYSHLADYFPEYDGPPRDPIAAREFILKMFVDLNPDADKIIYSHFTCATDTENIRFVFAAVKDTILQMHLRQYELL	1870 fluorescence units	2460 fluorescence units	1640 fluorescence units	8690 fluorescence units	3110 fluorescence units	387 fluorescence units	1700 fluorescence units	1.5 fold	–
C. elegans Gαq/s21 (other) MACCLSEEAREQKRINQEIEKQLQRDKRNARRELKLLLLGTGESGKSTFIKQMRIIHGQGYSEEDKRAHIRLVYQNVFMAIQSMIRAMDTLDIKFGNESEELQEKAAVVREVDFESVTSFEEPYVSYIKELWEDSGIQECYDRRREYQLTDSAKYYLSDLRRLAVPDYLPTEQDILRVRVPTTGIIEYPFDLEQIIFRMVDVGGQRSERRKWIHCFENVTSIMFLVALSEYDQVLVECDNENRMEESKALFRTIITYPWFTNSSVILFLNKKDLLEEKILYSHLADYFPEYDGPPRDPIAAREFILKMFVDLNPDADKIIYSHFTCATDTENIRRVFNDCRDIIQRMHLRQYELL	3380 fluorescence units	3120 fluorescence units	1010 fluorescence units	9430 fluorescence units	3510 fluorescence units	206 fluorescence units	1730 fluorescence units	–	–
D. melanogaster Gαq/z5 (other) MECCLSEEAKEQKRINQEIEKQLRRDKRDARRELKLLLLGTGESGKSTFIKQMRIIHGSGYSDEDKRGYIKLVFQNIFMAMQSMIKAMDMLKISYGQGEHSELADLVMSIDYETVTTFEDPYLNAIKTLWDDAGIQECYDRRREYQLTDSAKYYLKDLDRVAQPAYLPTEQDILRVRVPTTGIIEYPFDLEEIRFRMVDVGGQRSERRKWIHCFENVTSIIFLVALSEYDQILFESDNENRMEESKALFRTIITYPWFQNSSVILFLNKKDLLEEKIMYSHLVDYFPEYDGPQRDAITAREFILRMFVDLNPDSEKIIYSHFTCATDTENIRFVFAAVKDTILQSNLKYIGLC	–	–	–	–	–	–	–	–	2150 fluorescence units
Human Gαq/s5 (other) MTLESIMACCLSEEAKEARRINDEIERQLRRDKRDARRELKLLLLGTGESGKSTFIKQMRIIHGSGYSDEDKRGFTKLVYQNIFTAMQAMIRAMDTLKIPYKYEHNKAHAQLVREVDVEKVSAFENPYVDAIKSLWNDPGIQECYDRRREYQLSDSTKYYLNDLDRVADPSYLPTQQDVLRVRVPTTGIIEYPFDLQSVIFRMVDVGGQRSERRKWIHCFENVTSIMFLVALSEYDQVLVESDNENRMEESKALFRTIITYPWFQNSSVILFLNKKDLLEEKIMYSHLVDYFPEYDGPQRDAQAAREFILKMFVDLNPDSDKIIYSHFTCATDTENIRFVFAAVKDTILQLNLKQYELL	0 fluorescence units	189 fluorescence units	98 fluorescence units	0 fluorescence units	43 fluorescence units	0 fluorescence units	1710 fluorescence units	–	–
Human Gαq/s9 (other) MTLESIMACCLSEEAKEARRINDEIERQLRRDKRDARRELKLLLLGTGESGKSTFIKQMRIIHGSGYSDEDKRGFTKLVYQNIFTAMQAMIRAMDTLKIPYKYEHNKAHAQLVREVDVEKVSAFENPYVDAIKSLWNDPGIQECYDRRREYQLSDSTKYYLNDLDRVADPSYLPTQQDVLRVRVPTTGIIEYPFDLQSVIFRMVDVGGQRSERRKWIHCFENVTSIMFLVALSEYDQVLVESDNENRMEESKALFRTIITYPWFQNSSVILFLNKKDLLEEKIMYSHLVDYFPEYDGPQRDAQAAREFILKMFVDLNPDSDKIIYSHFTCATDTENIRFVFAAVKDTILQMHLRQYELL	745 fluorescence units	4200 fluorescence units	999 fluorescence units	5690 fluorescence units	1440 fluorescence units	0 fluorescence units	2310 fluorescence units	–	–
Human Gαq/z5 (identical to Accession number L76256) (other) MTLESIMACCLSEEAKEARRINDEIERQLRRDKRDARRELKLLLLGTGESGKSTFIKQMRIIHGSGYSDEDKRGFTKLVYQNIFTAMQAMIRAMDTLKIPYKYEHNKAHAQLVREVDVEKVSAFENPYVDAIKSLWNDPGIQECYDRRREYQLSDSTKYYLNDLDRVADPAYLPTQQDVLRVRVPTTGIIEYPFDLQSVIFRMVDVGGQRSERRKWIHCFENVTSIMFLVALSEYDQVLVESDNENRMEESKALFRTIITYPWFQNSSVILFLNKKDLLEEKIMYSHLVDYFPEYDGPQRDAQAAREFILKMFVDLNPDSDKIIYSHFTCATDTENIRFVFAAVKDTILQLNLKYIGLC	–	–	–	–	–	–	–	–	0 fluorescence units
